The source of these data is article PMC9253517 (The Journal of Experimental Medicine, 2022).

In experiment [1] the target is T1, SARS-CoV-2 Wuhan-Hu-1 RBD (SARS-CoV-2, Wuhan-Hu-1 (GenBank …, UniProt P0DTC2)). Description: cell-based or functional assay.
Experiment [2] deals with T1, SARS-CoV-2 Wuhan-Hu-1 RBD. Description: BLI. As to conditions: both partners purified.

B1: JR174 (antibody, V domains shown)
VH: QVQLVQSGAEVKKPGSSVKVSCKASGGTFSSYAISWVRQAPGQGLEWMGGIIPIFGTAHYAQKFQGRVTITADESTSTAYMELSSLRSEDTAVYFCARDLGGIQLYLLAYWGQGTLVTVSS
VL: EIVLTQSPVTLSLSPGERATLSCRASQSVSSTYLAWYQQKPGQAPRLLIYGASSRATGIPDRFSGSGSGTDFTLTISRLEPEDFAVYYCQQYVGSPGTFGQGTKVEIK
As for B1, in experiment [1], the “neutralisation IC50, Wuhan-Hu-1 pseudovirus” value (“neutralisation IC50” below) was 0.0798 µg/mL. Further, the binding result in experiment [2] is reported as “binds”.

B2: JR177 (antibody, V domains shown)
VH: QVQLVESGGGVVQPGRSLRLSCAASGFTLSSYAMHWVRQAPGKGLEWVALILYDGSNKYYADSVKGRFTISRDNSKNTVYLQMNSLRAEDTAVYYCARVRVWGRVVVAASFYYGMDVWGQGTTVTVSS
VL: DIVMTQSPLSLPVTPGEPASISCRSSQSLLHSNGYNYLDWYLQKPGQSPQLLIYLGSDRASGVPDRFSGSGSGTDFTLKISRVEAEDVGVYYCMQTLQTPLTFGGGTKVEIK
As for B2, the “neutralisation IC50” value in experiment [1] stood at 0.00328 µg/mL. In addition, the binding result in experiment [2] is on record as “binds”.

B3: JR041 (antibody, V domains shown)
VH: EVQLVESGGGLVQPGRSLRLSCAASGFTFDDYAMYWVRQAPGKGLEWVSGISWNSGSIGYADSVKGRFTISRDNAKNSLYLQMNSLRAEDTALYYCAKDISYHTGTIDYWGQGTLVTVSS
VL: QSALTQPASVSGSPGQSITISCTGTSSDIGGYNYVSWYQQHPGKAPKLMIYDVSNRPSGVSNRFSGSKSGNTASLTISGLQAEDEADYYCSSYTSSSTLGVGGGTKLTVL
Consider B3, for which, in experiment [1], the “neutralisation IC50” value came out at 0.0547 µg/mL. The binding result in experiment [2] is given as “binds”.

B4: JR215 (antibody, V domains shown)
VH: QVQLVQSGAEVKKPGASVKVSCKASGYTFTGYYMHWVRQAPGQGLEWMGRINPNSGDTNFPQKFQGRVTMTRDTSISTAYMELSRLRSDDTAVYYCARDGVADFNYDYWGQGTLVTVSS
VL: LTQPASVSGSPGQSITISCTGSSSDVGSYNLVSWYQQHPGKAPKLMIYEVSRRPSGVSNRFSGSKSGNTASLTISGLQAEDEADYYCCSYAGSSTWEVLFGGGTKLTVL
Take B4: the “neutralisation IC50” value in experiment [1] stood at 0.0448 µg/mL. Further, in experiment [2], the binding result is “binds”.

B5: JR216 (antibody, V domains shown)
VH: QLQLQESGPGLVKPSETLSLTCTVSGGSISSGSYFWGWIRQPPGKGLEWIGNIYNSGSTYYSPSLKSRVTISVNTSKNQFSLKMSSVTAADTAVYYCARQPWLRSQFDYWGQGTLVTVSS
VL: NFMLTQPHSVSESPGKTVTISCTGSSGSIASNYVQWYQQRPGSAPTNVIYEDNQRPSGVPDRFSGSIDSSSNSASLTISGLKTEDEADYYCQSYDSSTVVFGGGTKLTVL
With B5, the “neutralisation IC50” value in experiment [1] is 0.0458 µg/mL. Further, the binding result in experiment [2] is listed as “binds”.

B6: JR210 (antibody, V domains shown)
VH: EVQLVESGGGLVQPGGSLRLSCAASGFTFSNYWMTWVRQAPGKGLEWVANIKQDGSEKYYVDSVKGRFTISRDNAKNSLYLQMNSLRAEDTAVYYCARDLAVAISWFDPWGQGTLVTVSS
VL: NFMLTQPHSVSESPGKTVTMSCTRSSGSIASNYVQWYQQRPGSSPTTVIYEDNQRPSGVPDRFSGSIDSSSNSASLTISGLKTEDEADYYCHSYDSPRVVFGGGTKLTVL
Turning to B6, the “neutralisation IC50” value in experiment [1] was found to be 0.0897 µg/mL. The binding result in experiment [2] is on record as “binds”.

B7: JR092 (antibody, V domains shown)
VH: QVQLVESGGGLVKPGGSLRLSCAASGFTFSDYYMSWIRQAPGKGLEWVSYSSSRGSIIHYADSVKGRFTISRDNAKNSLCLQMNSLRAEDTAVYYCARATTPYSGYSMWGQGTLVTVSS
VL: NFMLTQPHSVSESPGKTVTISCTGSSGSIASNYVQWYQQRPGSAPTTVIYEDNQRPSGVPDRFSGSIDSSSNSASLTISGLKTEDEADYYCQSYDSSNWVFGGGTKLTVL
In the case of B7, in experiment [1], the “neutralisation IC50” value amounted to 0.109 µg/mL. Also, the binding result in experiment [2] was “binds”.

B8: JR328 (antibody, V domains shown)
VH: EVQLVESGGGLIQPGGSLRLSCAASGVIVSRNYMSWVRQAPGKGLEWVAVIYSGGSTFYADSVKGRFTISRDDSKNTLFLQMNALRAEDTAVYYCARDGDYYGMDVWGRGTTVTVSS
VL: DIQLTQSPSFLSASVGDRVTITCRASQGISNYLAWYQQKPGTAPRLLIYAAFTLQSGVPSRFSGSGSGTEFTLTISSLQPEDFATYYCQQLNTYPGFTFGPGTKVDIK
For B8, the “neutralisation IC50” value in experiment [1] came out at 0.0167 µg/mL.

B9: JR042 (antibody, V domains shown)
VH: EVQLVESGGGLIQPGGSLRLSCVASGVTVSSNYMSWVRQAPGKGLEWVSVIYPGGTTYYADSVKGRFTISRDNSKNTLYLQMTSLRAEDTAVYYCARGGDYHYGMDVWGQGTTVTVSS
VL: DIQLTQSPSFLSASVGDRVTITCRASQGISSYLAWYQQKPGKAPKLLIYAASTLQSGVPSRFSGSGSGTEFTLTISSLQPEDFATYYCQLLNSYPPTFGQGTKLEIK
Take B9: the “neutralisation IC50” value in experiment [1] was 0.0209 µg/mL. For the same molecule, the binding result in experiment [2] is “binds”.

B10: JR309 (antibody, V domains shown)
VH: EVQLVESGGGLVQPGRSLRLSCAASGFTFDDYAIHWVRQAPGKGLEWVSGSSWNSGTIGYADSVKGRFTISRDNAKNSLYLQMNSLRAEDTALYYCAKDWGTGDYNSYYFDYWGQGTLVTVSS
VL: SYELTQPPSVSVAPGKTARITCGGNNIGSKSVHWYQQKPGQAPVVVVYDDSDRPSGNPERFSGSNSGNTATLTIRRVEAGDEADYYCQVWDSNSDQYVFGTGTKVTVL
Turning to B10, in experiment [1], the “neutralisation IC50” value worked out at 0.0155 µg/mL. Also, the binding result in experiment [2] is listed as “binds”.

B11: JR086 (antibody, V domains shown)
VH: QVQLVQSGAEVKKPGASVKVSCKASGYTFTGYYMHWVRQAPGQGLEWMGWINPISGATNYAQKFQGGVTMTRDTSISTAYMELSRLRSDDTAVYYCARVNHIVVVTAIDPIYGMDVWGQGTTVTVSS
VL: QSALTQPASVSGSPGQSITISCTGTSSDVGGYNYVSWYQQHPGKAPKLMIYEVSNRPSGVSNRFSGSKSGNTASLTISGLQAEDEADYYCSSYTSSSTLYYVFGTGTKVTVL
Turning to B11, the “neutralisation IC50” value in experiment [1] is 0.0358 µg/mL. Further, the binding result in experiment [2] is reported as “binds”.

B12: JR039 (antibody, V domains shown)
VH: QLQLQESGPGLVKPSETLSLTCTVSGGSISSSSYYWGWIRQPPGKGLEWIGSIYYSGSTYYNPSLKSRVSISVDTSKNQFSLKLSSVTAADTAVYYCARPGPAYYDRSGYYRAEYFQRWGQGTLVTVSS
VL: AIRMTQSPSSLSASVGDRVTITCQASQDISDYLSWYQQKPGKAPKLLIYDASNLETGVPSRFSGSGSGTDFTFTISSLQPEDIATYYCQQYDNLPLTFGGGTKVEIK
Turning to B12, the “neutralisation IC50” value in experiment [1] is 0.0219 µg/mL. Also, the binding result in experiment [2] is given as “binds”.

B13: JR212 (antibody, V domains shown)
VH: QVQLVQSGAEVKKPGSSVKVSCKASGGTFSNYAISWVRQAPGQGLEWMGGIIPLFGTTNYAQKFQGRVTITADESTSTAYMELSSLRSEDTAMYYCASYSSGYHLVTDYWGQGTLVTVSS
VL: EIVLTQSPGTLSLSPGERATLSCRASQSVTSSYLAWYQQKPGQAPRLLIYGASSRATGIPDRFSGSGSGTDFTLTISRLEPEDFAVYYCQQYGTSRTFGQGTKVEIK
With B13, the “neutralisation IC50” value in experiment [1] came to 0.178 µg/mL. Also, in experiment [2], the binding result was “binds”.

B14: JR093 (antibody, V domains shown)
VH: QVQLVQSGAEVKKPGSSVKVSCKASGGTFSSYAISWVRQAPGQGLEWMGRIVPILNIANYAQRFQGRVTITADKSTSTAYMELSSLRSEDTAVYYCASPGSLLLGERIDELQFDYWGQGTLVTVSS
VL: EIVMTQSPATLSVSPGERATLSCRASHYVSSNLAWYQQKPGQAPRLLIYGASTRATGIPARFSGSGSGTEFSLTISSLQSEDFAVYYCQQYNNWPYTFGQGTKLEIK
In the case of B14, the “neutralisation IC50” value in experiment [1] worked out at 0.131 µg/mL. The binding result in experiment [2] is on record as “binds”.

B15: JR173 (antibody, V domains shown)
VH: EVQLVESGGGLVQPGRSLRLSCAASGFTFDDYAMHWVRQAPGKGLEWVSGISWNSGRKGYADSVKGRFTISRDNAKNSLHLQMNSLRAEDTALYYCAKDIQEAIEVSSIGFDYWGQGTLVTVSS
VL: QSVLTQPPSVSGAPGQRVTISCTGSSSNIGAGYDVHWYQQLPGTAPKLLIYGNSNRPSGVPDRFSGSKSGTSASLAITGLQAEDEADYYCQSYDSSLSGYAVFGGGTQLTVL
B15: in experiment [1], the “neutralisation IC50” value was determined as 0.0166 µg/mL. Also, the binding result in experiment [2] was “binds”.

B16: JR310 (antibody, V domains shown)
VH: EVQLVESGGGLIQPGGSLRLSCAASGFTVSSNYMSWVRQAPGKGLEWVSVIYSGGSTYYADSVKGRFTISRDNSKNTLYLQMNSLRAEDTAVYYCARGDPSDYYYYGMDVWGQGTTVTVSS
VL: QSVLTQPPSVSGAPGQRVTISCTGSSSNIGAGYDVHWYQQLPGTAPKLLIYGNSNRPSGVPDRFSGSKSGTSASLAITGLQAEDEADYYCQSYDSSLSGSGVFGTGTKVTVL
Consider B16, for which the “neutralisation IC50” value in experiment [1] was 0.219 µg/mL. Also, the binding result in experiment [2] was “binds”.

B17: JR043 (antibody, V domains shown)
VH: QVQLVQSGAEVKKPGASVKVSCKASGYTFTRNYMHWVRQAPGQGLEWMGIINPSGGSTSYAQKFQGRVTMTRDTSTSTVYMELSSLRSEDTAVYYCARVDSSSWSHCDYWGQGTLVTVSS
VL: DIQLTQSPSSLSASVGDRVTITCRASQSISTYLNWYQQNPGKAPKLLIYGASNLQSGVPSRFSGSGSGTDFTLTISSLQPEDFATYYCQQSYSTLEITFGQGTRLEIK
In the case of B17, the “neutralisation IC50” value in experiment [1] came to 0.00587 µg/mL. In addition, the binding result in experiment [2] is on record as “binds”.

B18: JR233 (antibody, V domains shown)
VH: QVQRVQSGAEVKKPGSSVKVSCKASGGTFSSYAFSWVRQAPGQGLEWMGGIIPILRIADYAQKFQGRVTITADKSTSTAFMELSSLRSEDTAVYYCARGQIELVPAARVDYFDYWGQGTLVTVSS
VL: DIQLTQSPSSLSASVGDRVTITCRASQSISSYLNWYQQKPGKAPKLLIYAASSLQSGVPSRFSGSGSGTDFTLTISSLQPEDFATYYCQQSYTTSFGPGTKVDIK
With B18, the “neutralisation IC50” value in experiment [1] was 0.00933 µg/mL. Moreover, the binding result in experiment [2] is recorded as “binds”.

B19: JR088 (antibody, V domains shown)
VH: QVQLQQSGPGLVKPSQTLSLTCAISGDSVSSDSAAWNWIRQSPSRGLEWLGRTYYRSKWSNDYEVSVKSRITINPDTSKNQFSLQLNSVTPEDTAVYYCAKQQLVLDDAFDIWGQGTMVTVSS
VL: QSALTQPRSVSGSPGQSVTISCTGTSSDVGGHNYVSWYEQHPGKAPKLMMYDVSKRPSGVPDRFSGSKSGNTASLTISGLQAEDEADYYCCSYAGSYIWVFGGGTKLTVL
As for B19, the “neutralisation IC50” value in experiment [1] is 0.0381 µg/mL. Also, the binding result in experiment [2] is “binds”.
